Results on five molecules are retold here after publication PMC10127198, “Pseudouridine-Modifying Enzymes SapB and SapH Control Entry into the Pseudouridimycin Biosynthetic Pathway” (ACS Chemical Biology, 2023).

By Km is commonly meant the substrate concentration at which the rate is half of its maximum. Usually kcat stands for the number of substrate molecules converted per active site and unit of time at saturation. One may read the kcat/Km as the turnover number divided by the Michaelis constant. In general, stoichiometry N refers to a count of units in the complex or per binding partner.

The target of data set [1] is T1, SapH (Streptomyces albus, UniProt A0ACH0CL42).
T1 construct: gene NR995_03130; homodimer
T1 sequence (A0ACH0CL42 entry or part of it): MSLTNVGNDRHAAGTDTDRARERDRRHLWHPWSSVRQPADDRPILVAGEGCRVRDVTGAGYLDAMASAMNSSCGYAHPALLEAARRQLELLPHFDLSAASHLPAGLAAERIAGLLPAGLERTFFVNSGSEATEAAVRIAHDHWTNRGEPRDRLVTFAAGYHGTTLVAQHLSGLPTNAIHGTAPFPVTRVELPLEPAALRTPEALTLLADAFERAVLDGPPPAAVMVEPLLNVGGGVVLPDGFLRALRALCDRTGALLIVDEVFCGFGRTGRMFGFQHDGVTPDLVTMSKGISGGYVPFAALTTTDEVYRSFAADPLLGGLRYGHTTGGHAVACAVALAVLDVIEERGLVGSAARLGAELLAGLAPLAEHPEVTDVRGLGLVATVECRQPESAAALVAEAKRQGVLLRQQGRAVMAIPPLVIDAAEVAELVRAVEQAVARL
In words: relative activity by HPLC, coupled with SapB. It counts as biochemical. The settings on record: amino donor 5 mM, 1.5 mM uridine, 1 μM SapB, 2 μM SapH, pH 7.5.

In data set [2] the target is T2, SapB (Streptomyces albus, UniProt A0ACH0CL45).
T2 construct: gene NR995_03120; N-terminal His6-tag, codon-optimized synthetic gene in pBADHisBd, E. coli TOP10
T2 sequence (A0ACH0CL45 1-509): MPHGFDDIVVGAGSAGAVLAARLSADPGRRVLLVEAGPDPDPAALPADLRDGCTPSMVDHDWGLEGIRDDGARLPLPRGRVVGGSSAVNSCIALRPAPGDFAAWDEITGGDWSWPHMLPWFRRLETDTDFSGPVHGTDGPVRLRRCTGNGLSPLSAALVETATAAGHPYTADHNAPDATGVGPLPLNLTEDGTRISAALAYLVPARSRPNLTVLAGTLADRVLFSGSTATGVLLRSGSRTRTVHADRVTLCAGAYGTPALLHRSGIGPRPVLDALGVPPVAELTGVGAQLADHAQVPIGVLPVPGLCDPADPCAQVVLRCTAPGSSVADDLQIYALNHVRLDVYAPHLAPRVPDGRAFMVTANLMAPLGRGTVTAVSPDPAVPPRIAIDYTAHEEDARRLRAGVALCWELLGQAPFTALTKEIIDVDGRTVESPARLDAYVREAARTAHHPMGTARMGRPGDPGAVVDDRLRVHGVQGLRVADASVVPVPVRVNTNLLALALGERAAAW
In words: LC/MS of cofactor released by boiling. The data set is classed as binding. The note with it: copurified, tightly bound.

Data set [3] deals with T1, SapH. In words: X-ray crystallography, […] Å. It counts as binding. The settings on record: active site at dimer interface; non-covalent (no link to Lys289); crystals pH 7.5, 20 °C.
The subject of data set [4] is O=c1[nH]c(=O)c([C@@H]2O[C@H](CO)[C@@H](O)[C@H]2O)co1. Kind of data set: purified protein. The note with it: 50 mM Tris-HCl pH 7.5, 10 mM NaCl, 10 mM KCl, 5 mM MgCl2, O2 as electron acceptor.
In data set [5] the test system is O=c1[nH]cc([C@@H]2O[C@H](CO)[C@@H](O)[C@H]2O)c(=O)[nH]1. In words: purified protein. The settings on record: 50 mM Tris-HCl pH 7.5, 10 mM NaCl, 10 mM KCl, 5 mM MgCl2, O2 as electron acceptor.
Data set [6] deals with SapH (Streptomyces albus DSM 40763). Kind of data set: crystal structure; hanging drop vapour diffusion at 20 °C; SapH 9.9 mg/mL in 50 mM TAPS pH 8.5, 250 mM NaCl, 10% glycerol; well 0.1 M BisTRIS-propane, 0.2 M Na-K-phosphate, 27.5% PEG3350, pH 7.5; space group P212121; dimer in the asymmetric unit.

As to `N=C(N)NCCC[C@H](N)C(=O)O` [arginine], in data set [1], the “relative activity by HPLC, coupled with SapB” value is “shows preference for methionine, phenylalanine, and arginine”.

`Cc1cc2nc3c(=O)[nH]c(=O)nc-3n(C[C@H](O)[C@H](O)[C@H](O)COP(=O)(O)OP(=O)(O)OC[C@H]3O[C@@H](n4cnc5c(N)ncnc54)[C@H](O)[C@@H]3O)c2cc1C` [flavin adenine dinucleotide]: in data set [2], the “LC/MS of cofactor released by boiling” value was “LC/MS) analysis identified the SapB cofactor to be flavin adenine dinucleotide (FAD)”.

For `Cc1ncc(COP(=O)(O)O)c(CN)c1O` [pyridoxamine-5′-phosphate], the “X-ray crystallography, 1.55 Å” value in data set [3] is listed as “The bound PLP was modeled as pyridoxamine, according to the observed electron density map”.

As for SapB (Streptomyces albus), in data set [4], the Km amounted to 181 ± 25 µM, the kcat amounted to 0.0172 s⁻¹ and the kcat/Km amounted to 95 M⁻¹ s⁻¹. In data set [5], the Km is 34 ± 5 µM, the kcat came to 0.019 s⁻¹ and the kcat/Km is 550 M⁻¹ s⁻¹.

In data set [6], SapH (enzyme) gave a stoichiometry N of 2.
